In PMC3857783, “Human Fanconi Anemia Complementation Group A Protein Stimulates the 5’ Flap Endonuclease Activity of FEN1” (PLoS ONE, 2013):

Target: Flap endonuclease 1 (FEN1) (human (endogenous in RA3087 cells), UniProt P39748-1 1-380)
Assay: cell-based or functional assay

Sequence of Flap endonuclease 1 (FEN1) (P39748 whole entry): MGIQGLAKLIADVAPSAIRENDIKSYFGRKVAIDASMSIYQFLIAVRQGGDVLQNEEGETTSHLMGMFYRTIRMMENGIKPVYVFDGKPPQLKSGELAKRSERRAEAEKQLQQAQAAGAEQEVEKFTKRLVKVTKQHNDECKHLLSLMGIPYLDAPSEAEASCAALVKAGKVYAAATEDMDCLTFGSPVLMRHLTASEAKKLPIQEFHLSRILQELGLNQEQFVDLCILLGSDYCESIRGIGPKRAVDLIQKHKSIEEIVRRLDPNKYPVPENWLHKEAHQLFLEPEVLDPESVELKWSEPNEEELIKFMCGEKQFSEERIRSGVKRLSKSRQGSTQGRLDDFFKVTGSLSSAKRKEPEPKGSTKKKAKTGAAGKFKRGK

B1: FLAG-FANCA (human Fanconi anemia complementation group A protein) (natural protein, UniProt O15360-1 1-1455, looked up)
chain: MSDSWVPNSASGQDPGGRRRAWAELLAGRVKREKYNPERAQKLKESAVRLLRSHQDLNALLLEVEGPLCKKLSLSKVIDCDSSEAYANHSSSFIGSALQDQASRLGVPVGILSAGMVASSVGQICTAPAETSHPVLLTVEQRKKLSSLLEFAQYLLAHSMFSRLSFCQELWKIQSSLLLEAVWHLHVQGIVSLQELLESHPDMHAVGSWLFRNLCCLCEQMEASCQHADVARAMLSDFVQMFVLRGFQKNSDLRRTVEPEKMPQVTVDVLQRMLIFALDALAAGVQEESSTHKIVRCWFGVFSGHTLGSVISTDPLKRFFSHTLTQILTHSPVLKASDAVQMQREWSFARTHPLLTSLYRRLFVMLSAEELVGHLQEVLETQEVHWQRVLSFVSALVVCFPEAQQLLEDWVARLMAQAFESCQLDSMVTAFLVVRQAALEGPSAFLSYADWFKASFGSTRGYHGCSKKALVFLFTFLSELVPFESPRYLQVHILHPPLVPGKYRSLLTDYISLAKTRLADLKVSIENMGLYEDLSSAGDITEPHSQALQDVEKAIMVFEHTGNIPVTVMEASIFRRPYYVSHFLPALLTPRVLPKVPDSRVAFIESLKRADKIPPSLYSTYCQACSAAEEKPEDAALGVRAEPNSAEEPLGQLTAALGELRASMTDPSQRDVISAQVAVISERLRAVLGHNEDDSSVEISKIQLSINTPRLEPREHMAVDLLLTSFCQNLMAASSVAPPERQGPWAALFVRTMCGRVLPAVLTRLCQLLRHQGPSLSAPHVLGLAALAVHLGESRSALPEVDVGPPAPGAGLPVPALFDSLLTCRTRDSLFFCLKFCTAAISYSLCKFSSQSRDTLCSCLSPGLIKKFQFLMFRLFSEARQPLSEEDVASLSWRPLHLPSADWQRAALSLWTHRTFREVLKEEDVHLTYQDWLHLELEIQPEADALSDTERQDFHQWAIHEHFLPESSASGGCDGDLQAACTILVNALMDFHQSSRSYDHSENSDLVFGGRTGNEDIISRLQEMVADLELQQDLIVPLGHTPSQEHFLFEIFRRRLQALTSGWSVAASLQRQRELLMYKRILLRLPSSVLCGSSFQAEQPITARCEQFFHLVNSEMRNFCSHGGALTQDITAHFFRGLLNACLRSRDPSLMVDFILAKCQTKCPLILTSALVWWPSLEPVLLCRWRRHCQSPLPRELQKLQEGRQFASDFLSPEAASPAPNPDWLSAAALHFAIQQVREENIRKQLKKLDCEREELLVFLFFFSLMGLLSSHLTSNSTTDLPKAFHVCAAILECLEKRKISWLALFQLTESDLRLGRLLLRVAPDQHTRLLPFAFYSLLSYFHEDAAIREEAFLHVAVDMYLKLVQLFVAGDTSTVSPPAGRSLELKGQGNPVELITKARLFLLQLIPRCPKKSFSHVAELLADRGDCDPEVSAALQSRQQAAPDADLSQEPHLF
- stimulation of FEN1 5' flap endonuclease activity on the 15-nt DNA flap (2 nM substrate, 0.2 nM purified FEN1) by purified His6-FANCA at 2.5, 5, 10 nM; fold over FEN1 alone: 4.5 fold
- stimulation of FEN1 5' flap endonuclease activity on the 15-nt RNA flap (2 nM substrate, 0.1 nM purified FEN1) by purified His6-FANCA at 2.5, 5, 10 nM; fold over FEN1 alone: 8 fold
